For assay [1], the target named is Eco RNAP β' subunit (in the opsEC) (E. coli, UniProt P0A8T7). Description: cryo-EM structure.
The target in assay [2] is Eco RNAP β subunit (in the opsEC) (E. coli, UniProt P0A8V2). The assay is described as follows: cryo-EM structure.
Sequence of Eco RNAP β subunit (in the opsEC) (P0A8V2 whole entry): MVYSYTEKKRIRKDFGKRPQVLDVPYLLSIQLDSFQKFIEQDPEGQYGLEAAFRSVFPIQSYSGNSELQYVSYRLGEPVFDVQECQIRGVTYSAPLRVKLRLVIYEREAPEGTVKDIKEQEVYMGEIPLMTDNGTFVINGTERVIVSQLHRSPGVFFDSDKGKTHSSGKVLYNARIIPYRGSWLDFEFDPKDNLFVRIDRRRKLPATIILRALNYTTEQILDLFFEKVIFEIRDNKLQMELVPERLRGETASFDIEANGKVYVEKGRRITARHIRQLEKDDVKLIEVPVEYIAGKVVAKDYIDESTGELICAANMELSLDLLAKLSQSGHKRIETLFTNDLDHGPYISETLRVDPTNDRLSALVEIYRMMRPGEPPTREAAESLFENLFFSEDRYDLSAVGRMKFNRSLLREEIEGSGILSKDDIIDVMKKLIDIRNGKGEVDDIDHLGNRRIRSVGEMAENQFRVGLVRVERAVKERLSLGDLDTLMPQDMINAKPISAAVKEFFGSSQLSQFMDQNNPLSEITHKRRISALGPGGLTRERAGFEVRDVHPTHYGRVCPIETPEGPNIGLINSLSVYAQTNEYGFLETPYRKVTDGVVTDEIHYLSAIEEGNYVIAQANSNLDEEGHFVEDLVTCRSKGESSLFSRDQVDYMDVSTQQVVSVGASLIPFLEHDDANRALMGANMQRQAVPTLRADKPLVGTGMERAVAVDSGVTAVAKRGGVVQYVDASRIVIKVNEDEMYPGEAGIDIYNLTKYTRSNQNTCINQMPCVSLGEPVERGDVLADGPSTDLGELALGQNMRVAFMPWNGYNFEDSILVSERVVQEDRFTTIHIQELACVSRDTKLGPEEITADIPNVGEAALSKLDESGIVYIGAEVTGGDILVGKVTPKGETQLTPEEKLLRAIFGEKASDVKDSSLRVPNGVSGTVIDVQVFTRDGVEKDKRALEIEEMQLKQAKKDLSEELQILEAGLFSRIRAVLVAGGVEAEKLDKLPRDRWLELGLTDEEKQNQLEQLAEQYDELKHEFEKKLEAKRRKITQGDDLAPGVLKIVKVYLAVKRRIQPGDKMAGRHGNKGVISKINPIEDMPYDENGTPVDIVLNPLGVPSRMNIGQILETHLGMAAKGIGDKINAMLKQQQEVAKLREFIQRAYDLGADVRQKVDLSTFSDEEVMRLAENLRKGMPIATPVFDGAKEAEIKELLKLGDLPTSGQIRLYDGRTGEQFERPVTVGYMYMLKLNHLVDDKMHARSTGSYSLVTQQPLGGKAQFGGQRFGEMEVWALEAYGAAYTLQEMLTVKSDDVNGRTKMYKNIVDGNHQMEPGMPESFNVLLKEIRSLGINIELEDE

Sequence of Eco RNAP β' subunit (in the opsEC) (P0A8T7 whole entry): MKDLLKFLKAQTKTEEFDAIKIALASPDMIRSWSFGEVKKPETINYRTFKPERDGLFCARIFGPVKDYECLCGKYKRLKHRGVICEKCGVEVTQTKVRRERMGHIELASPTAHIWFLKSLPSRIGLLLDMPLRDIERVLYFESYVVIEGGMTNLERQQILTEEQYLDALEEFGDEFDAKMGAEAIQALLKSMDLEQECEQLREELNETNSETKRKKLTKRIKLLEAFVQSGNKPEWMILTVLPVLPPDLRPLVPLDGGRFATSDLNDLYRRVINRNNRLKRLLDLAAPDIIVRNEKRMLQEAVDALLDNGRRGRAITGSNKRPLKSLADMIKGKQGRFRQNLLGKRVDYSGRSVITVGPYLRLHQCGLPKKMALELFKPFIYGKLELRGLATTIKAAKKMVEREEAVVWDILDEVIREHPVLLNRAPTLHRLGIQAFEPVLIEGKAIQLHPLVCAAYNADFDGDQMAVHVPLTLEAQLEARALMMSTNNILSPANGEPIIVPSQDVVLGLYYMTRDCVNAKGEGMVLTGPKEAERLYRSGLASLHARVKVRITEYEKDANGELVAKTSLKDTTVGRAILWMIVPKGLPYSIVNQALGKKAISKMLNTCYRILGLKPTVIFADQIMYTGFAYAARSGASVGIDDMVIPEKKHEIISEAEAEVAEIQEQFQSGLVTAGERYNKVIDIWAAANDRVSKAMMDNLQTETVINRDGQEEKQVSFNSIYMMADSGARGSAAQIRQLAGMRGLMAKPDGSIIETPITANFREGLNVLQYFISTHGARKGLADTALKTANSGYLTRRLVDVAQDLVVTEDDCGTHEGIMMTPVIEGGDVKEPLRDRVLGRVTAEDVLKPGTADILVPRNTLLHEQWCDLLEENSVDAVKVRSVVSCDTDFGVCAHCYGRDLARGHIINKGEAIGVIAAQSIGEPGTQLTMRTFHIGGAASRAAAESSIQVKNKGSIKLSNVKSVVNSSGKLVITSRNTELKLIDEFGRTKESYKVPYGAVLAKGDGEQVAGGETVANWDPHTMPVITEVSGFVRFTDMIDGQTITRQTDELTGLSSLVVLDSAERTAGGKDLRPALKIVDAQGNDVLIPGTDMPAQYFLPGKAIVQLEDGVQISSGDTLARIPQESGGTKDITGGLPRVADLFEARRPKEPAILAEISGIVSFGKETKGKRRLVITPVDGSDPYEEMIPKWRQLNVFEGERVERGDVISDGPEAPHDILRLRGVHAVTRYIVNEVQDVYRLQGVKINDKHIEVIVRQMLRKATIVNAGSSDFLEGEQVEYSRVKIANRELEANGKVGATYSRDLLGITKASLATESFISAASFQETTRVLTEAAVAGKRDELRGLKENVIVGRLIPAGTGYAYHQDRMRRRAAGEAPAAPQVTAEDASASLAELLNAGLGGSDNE

B1: wild-type Eco RfaH, full length (natural protein)
chain: MQSWYLLYCKRGQLQRAQEHLERQAVNCLAPMITLEKIVRGKRTAVSEPLFPNYLFVEFDPEVIHTTTINATRGVSHFVRFGASPAIVPSAVIHQLSVYKPKDIVDPATPYPGDKVIITEGAFEGFQAIFTEPDGEARSMLLLNLINKEIKHSVKNTEFRKL
Consider B1, for which the binding result in assay [1] and in assay [2] was “binds” each time.

Values taken from publication doi:10.1101/324400 (bioRxiv, 2018).
